± gives the uncertainty stated by the source.
Experiment: self-splicing fitness, log relative to wild type (ln ratio); higher = more splicing; Tetrahymena group I intron in knt gene, E. coli kanamycin selection, DiMSum; sequences stand for … in CUCUCU…GGAGGGAAAAGUUAUCAGGCAUGCACCUGGUAGCUAGUCUUUAAACCAAUAGAUUGCAUCGGUUUAAAAGGCAAGACCGUCAAAUUGCGGGAAAGGGGUCAACAGCCGUUCAGUACCAAGUCUCAGGGGAAACUUUGAGAUGGCCUUGCAAAGGGUAUGGUAAUAAGCUGACGGACAUGGUCCUAACCACGCAGCCAAGUCCUAAGUCAACAGAUCUUCUGUUGAUAUGGAUGCAGUUCACAGACUAAAUGUCGGUCGGGGAAGAUGUAUUCUUCUCAUAAGAUAUAGUCGGACCUCUCCUUAAUGGGAGCUAGCGGAUGAAGUGAUGCAACACUGGAGCCGCUGGGAACUAAUUUGUAUGCGAAAGUAUAUUGAUUAGUUUUGGAGUACUCGUGGUCG
Procedure, shortened: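 A randomised library covering all eight P1ex-region intron nucleotides was built with the intron in the knt kanamycin-resistance gene on pET-22b(+) and held in E. coli BL21(DE3). Cells were grown overnight at 37°C or 30°C on LB agar, with or without 25 μg/mL kanamycin, plus 100 μg/mL carbenicillin, 50 μM IPTG and 0.2% rhamnose, and pooled colonies were amplicon-sequenced on an Illumina HiSeq 2500. DiMSum fitness is the error-weighted combination of wild-type-normalised replicate fold changes, kanamycin versus none.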

| Sequence | self-splicing fitness (ln) (30 °C) | self-splicing fitness (ln) (37 °C) |
| --- | --- | --- |
| GUCUAGCAAUAUUACGGUGG | -2.87 ± 0.17 | -3.96 ± 0.46 |
| GUCUAGCAAUAUUACGUACU | -0.946 ± 0.11 | -0.0535 ± 0.1 |
| GUCUAGCAAUAUUACGUAGA | -1.69 ± 0.14 | -0.93 ± 0.2 |
| GUCUAGCAAUAUUACGUAGC | -1.45 ± 0.15 | 0.302 ± 0.2 |
| GUCUAGCAAUAUUACGUCCU | -0.102 ± 0.16 | -0.136 ± 0.14 |
| GUGAAGCAAUAUUACGAACA | -0.242 ± 0.076 | 0.0414 ± 0.11 |
| GUGAAGCAAUAUUACGAAGG | -1.91 ± 0.14 | -0.854 ± 0.17 |
| GUGAAGCAAUAUUACGACAC | -1.1 ± 0.12 | 0.386 ± 0.18 |
| GUGAAGCAAUAUUACGAGAG | -2.92 ± 0.11 | -1.7 ± 0.1 |
| GUGAAGCAAUAUUACGAGGG | -3.74 ± 0.25 | -1.29 ± 0.13 |
| GUGAAGCAAUAUUACGAUUA | 0.198 ± 0.084 | -0.124 ± 0.13 |
| GUGAAGCAAUAUUACGCAGU | -2.6 ± 0.22 | -1.02 ± 0.19 |
| GUGAAGCAAUAUUACGCCAC | -2.66 ± 0.5 | – |
| GUGAAGCAAUAUUACGCCUU | -0.0499 ± 0.15 | -0.45 ± 0.17 |
| GUGAAGCAAUAUUACGCGUU | -3.59 ± 0.2 | -2.02 ± 0.21 |
| GUGAAGCAAUAUUACGCUUC | -4.23 ± 0.32 | -2.41 ± 0.3 |
| GUGAAGCAAUAUUACGGCAG | -2.32 ± 0.13 | -1.06 ± 0.16 |
| GUGAAGCAAUAUUACGGCGU | 0.663 ± 0.12 | 0.727 ± 0.15 |
| GUGAAGCAAUAUUACGGUAG | -1.79 ± 0.087 | -0.687 ± 0.1 |
| GUGAAGCAAUAUUACGGUCA | -0.465 ± 0.11 | 0.46 ± 0.12 |
| GUGAAGCAAUAUUACGGUCG | -0.124 ± 0.063 | -0.0595 ± 0.085 |
| GUGAAGCAAUAUUACGUAUA | -1.53 ± 0.077 | -0.347 ± 0.1 |
| GUGAAGCAAUAUUACGUGCA | 0.391 ± 0.085 | -0.0531 ± 0.11 |
| GUGCAGCAAUAUUACGAAAC | -1.82 ± 0.1 | -1.26 ± 0.095 |
| GUGCAGCAAUAUUACGACCG | -2.18 ± 0.2 | -1.5 ± 0.27 |
| GUGCAGCAAUAUUACGACCU | -1.51 ± 0.27 | -0.504 ± 0.24 |

| Sequence | self-splicing fitness (ln) (30 °C) | self-splicing fitness (ln) (37 °C) |
| --- | --- | --- |
| GUGCAGCAAUAUUACGAGCG | -0.973 ± 0.072 | -0.518 ± 0.083 |
| GUGCAGCAAUAUUACGCCGG | -2.21 ± 0.41 | – |
| GUGCAGCAAUAUUACGCCUC | -0.807 ± 0.17 | 0.123 ± 0.21 |
| GUGCAGCAAUAUUACGCGCC | -3.58 ± 0.4 | -1.95 ± 0.33 |
| GUGCAGCAAUAUUACGCGGG | -2.81 ± 0.36 | -1.03 ± 0.2 |
| GUGCAGCAAUAUUACGGAAG | -3.19 ± 0.24 | -1.77 ± 0.25 |
| GUGCAGCAAUAUUACGGGAC | -2.09 ± 0.19 | -2.82 ± 0.48 |
| GUGCAGCAAUAUUACGGGCA | -2.08 ± 0.15 | -1.23 ± 0.15 |
| GUGCAGCAAUAUUACGGGUC | -2.38 ± 0.13 | -0.803 ± 0.14 |
| GUGCAGCAAUAUUACGGUGA | -0.753 ± 0.095 | 0.095 ± 0.12 |
| GUGCAGCAAUAUUACGUCAA | -1.6 ± 0.15 | -0.634 ± 0.12 |
| GUGCAGCAAUAUUACGUUAC | -3.66 ± 0.33 | -2.93 ± 0.38 |
| GUGGAGCAAUAUUACGAAAU | -4.22 ± 0.36 | -2.05 ± 0.29 |
| GUGGAGCAAUAUUACGAGUU | – | -1.7 ± 0.43 |
| GUGGAGCAAUAUUACGAUUU | -1.07 ± 0.27 | -1.29 ± 0.29 |
| GUGGAGCAAUAUUACGCACU | 0.427 ± 0.33 | – |
| GUGGAGCAAUAUUACGCAGU | -2.88 ± 0.18 | -2.58 ± 0.31 |
| GUGGAGCAAUAUUACGCGUA | -2.14 ± 0.36 | -0.34 ± 0.25 |
| GUGGAGCAAUAUUACGGCAA | – | -1.55 ± 0.35 |
| GUGGAGCAAUAUUACGGCGG | -3.32 ± 0.29 | -1.54 ± 0.27 |
| GUGGAGCAAUAUUACGUAUU | -3.11 ± 0.17 | -1.68 ± 0.21 |
| GUGGAGCAAUAUUACGUCUC | -3.56 ± 0.15 | -2.77 ± 0.16 |
| GUGUAGCAAUAUUACGAACG | -1.76 ± 0.16 | -0.988 ± 0.23 |
| GUGUAGCAAUAUUACGAAUA | -1.91 ± 0.39 | -1.39 ± 0.43 |
| GUGUAGCAAUAUUACGACAA | -0.665 ± 0.14 | -0.365 ± 0.21 |
| GUGUAGCAAUAUUACGACAU | -2.608 ± 0.022 | -1.52 ± 0.037 |

| Sequence | self-splicing fitness (ln) (30 °C) | self-splicing fitness (ln) (37 °C) |
| --- | --- | --- |
| GUGUAGCAAUAUUACGAGCC | -2.65 ± 0.38 | -2.28 ± 0.31 |
| GUGUAGCAAUAUUACGAGCU | -2.36 ± 0.17 | -0.678 ± 0.21 |
| GUGUAGCAAUAUUACGAUGU | -1.36 ± 0.12 | -0.234 ± 0.14 |
| GUGUAGCAAUAUUACGCACU | -2.59 ± 0.41 | -2.13 ± 0.33 |
| GUGUAGCAAUAUUACGCAUA | -2.5 ± 0.21 | -1.31 ± 0.19 |
| GUGUAGCAAUAUUACGCAUG | -2.88 ± 0.27 | -2.67 ± 0.41 |
| GUGUAGCAAUAUUACGCCCA | – | -0.199 ± 0.35 |
| GUGUAGCAAUAUUACGCCGC | -3 ± 0.46 | -2.79 ± 0.44 |
| GUGUAGCAAUAUUACGGCAA | -0.687 ± 0.17 | -0.481 ± 0.23 |
| GUGUAGCAAUAUUACGGGAA | -2.77 ± 0.19 | -1.74 ± 0.2 |
| GUGUAGCAAUAUUACGGGGU | -3.62 ± 0.26 | -2.63 ± 0.34 |
| GUGUAGCAAUAUUACGGUAU | -2.35 ± 0.12 | -0.18 ± 0.12 |
| GUGUAGCAAUAUUACGUACA | -1.49 ± 0.2 | -1.87 ± 0.28 |
| GUGUAGCAAUAUUACGUAGU | -2.99 ± 0.18 | -1.37 ± 0.17 |
| GUGUAGCAAUAUUACGUCAA | -1.16 ± 0.15 | -1.14 ± 0.15 |
| GUGUAGCAAUAUUACGUGCA | -2.55 ± 0.21 | -1.11 ± 0.26 |
| GUGUAGCAAUAUUACGUUCA | -0.405 ± 0.14 | -0.597 ± 0.13 |
| GUUAAGCAAUAUUACGAAAU | -1.41 ± 0.16 | -2.16 ± 0.24 |
| GUUAAGCAAUAUUACGAAUC | -1.8 ± 0.29 | -0.464 ± 0.17 |
| GUUAAGCAAUAUUACGACAC | -0.925 ± 0.13 | 0.479 ± 0.19 |
| GUUAAGCAAUAUUACGACCU | -0.481 ± 0.14 | -0.37 ± 0.2 |
| GUUAAGCAAUAUUACGAUCG | -2.08 ± 0.25 | -1.18 ± 0.22 |
| GUUAAGCAAUAUUACGCACA | -0.425 ± 0.09 | -0.0375 ± 0.11 |
| GUUAAGCAAUAUUACGCGGA | -0.996 ± 0.27 | -0.987 ± 0.2 |
| GUUAAGCAAUAUUACGCUAG | -1.64 ± 0.11 | 0.113 ± 0.14 |
| GUUAAGCAAUAUUACGCUGA | -2.98 ± 0.22 | -1.4 ± 0.2 |

Source: the supplement of paper PMC7877785
